Molecular target: the molecule itself
Test: size exclusion chromatography and negative stain EM (self-association of trimers)

B1: gB-698 (CMV gB ectodomain residues 1-698 with fusion loop, furin site and C246S mutations, C-terminal 6-His tag) (other)
chain: VSSSSTRGTSATHSHHSSHTTSAAHSRSGSVSQRVTSSQTVSHGVNETIYNTTLKYGDVVGVNTTKYPYRVCSMAQGTDLIRFERNIVCTSMKPINEDLDEGIMVVYKRNIVAHTFKVRVYQKVLTFRRSYAYHRTTYLLGSNTEYVAPPMWEIHHINSHSQCYSSYSRVIAGTVFVAYHRDSYENKTMQLMPDDYSNTHSTRYVTVKDQWHSRGSTRLYRETSNLNCMVTITTARSKYPYHFFATSTGDVVDISPFYNGTNRNASYFGENADKFFIFPNYTIVSDFGRPNSALETHRLVAFLERADSVISWDIQDEKNVTCQLTFWEASERTIRSEAEDSYHFSSAKMTATFLSKKQEVNMSDSALDCVRDEAINKLQQIFNTSYNQTYEKYGNVSVFETTGGLVVFWQGIKQKSLVELERLANRSSLNLTHNSTKSSTDGNNATHLSNMESVHNLVYAQLQFTYDTLRGYINRALAQIAEAWCVDQRRTLEVFKELSKINPSAILSAIYNKPIAARFMGDVLGLASCVTINQTSVKVLRDMNVKESPGRCYSRPVVIFNFANSSYVQYGQLGEDNEILLGNHRTEECQLPSLKIFIAGNSAYEYVDYLFKRMIDLSSISTVDSMIALDIDPLENTDFRVLELYSQKELRSSNVFDLEEIMREFNSYKQRVKYVEHHHHHH
notes: Expressed in 293GnTI- cells; The trimer pairs into a dimeric trimer of six subunits
Q: Does B1 bind?
A: binds

Reference: patent US20180265551A1 (GlaxoSmithKline, published 2018)
